Results: US8637043B2, “Compositions useful as ligands for the formyl peptide receptor like 1 receptor and methods of use thereof” (Chemocentryx, Inc., priority 2001, dated 2014)
Entries after “also recorded” stand apart in the source; their conditions may differ. Ends that are not written are not given here.

T1: human FPRL1 (Homo sapiens, UniProt P25090)
T1 construct: Full length cDNA encoding FPRL1 was cloned, using the polymerase chain reaction (PCR), from genomic DNA isolated from undifferentiated HL-60 cells; expressed in transfected cells; linearized FPRL1/pcDNA3.1, electroporation
T1 sequence (P25090 1-351): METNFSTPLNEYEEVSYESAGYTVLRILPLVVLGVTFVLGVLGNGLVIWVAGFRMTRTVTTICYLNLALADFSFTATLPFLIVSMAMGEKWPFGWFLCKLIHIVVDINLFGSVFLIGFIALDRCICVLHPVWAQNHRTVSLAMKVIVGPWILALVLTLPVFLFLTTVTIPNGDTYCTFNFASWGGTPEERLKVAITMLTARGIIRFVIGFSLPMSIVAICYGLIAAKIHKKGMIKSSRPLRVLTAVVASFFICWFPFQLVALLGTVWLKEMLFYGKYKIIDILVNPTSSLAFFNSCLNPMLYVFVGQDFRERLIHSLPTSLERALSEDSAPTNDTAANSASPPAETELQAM

T2: CCR1 (Homo sapiens, UniProt P32246)
T2 construct: full length cDNA encoding CCR1 was cloned by the polymerase chain reaction (PCR) from genomic DNA isolated from human peripheral blood cells; expressed in transfected cells; pcDNA3.1 vector)
T2 sequence (P32246 1-355): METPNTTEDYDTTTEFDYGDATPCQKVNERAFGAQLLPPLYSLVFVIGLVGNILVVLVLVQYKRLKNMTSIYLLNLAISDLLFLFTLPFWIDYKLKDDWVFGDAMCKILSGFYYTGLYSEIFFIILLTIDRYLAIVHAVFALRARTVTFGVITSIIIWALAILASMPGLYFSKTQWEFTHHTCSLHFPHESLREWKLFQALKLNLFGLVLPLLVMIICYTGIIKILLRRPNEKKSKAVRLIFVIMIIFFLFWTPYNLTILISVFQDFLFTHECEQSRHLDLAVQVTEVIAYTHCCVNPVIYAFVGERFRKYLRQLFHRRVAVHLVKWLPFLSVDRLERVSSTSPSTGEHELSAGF


Experiments:
[1] = target: T1, human FPRL1; test: Migration of FPRL1-L1.2 cells; assay type: cell-based; details: for migration of FPRL1 expressing cells: FPRL1-L1.2 cells, ChemoTx
Protocol: (§1) Migration assays were performed on monocytes and neutrophils. Human monocytes and neutrophils (prepared as in Exampe 2) were harvested and resuspended in chemotaxis medium (CM). The CM consisted of Hank's buffered salt solution (Gibco, Mass.) containing CaCl2 (1 mM) and MgSO4 (1 mM) with added 0.1% BSA (Sigma, St. Louis, Mo.). The assays were performed in 96-well ChemoTx® microplates (Neuroprobe, Mass.). Leukotactin, MlP-1α and chemokines (CKβ8(1-99), CKβ8(25-99), CKβ8-1(1-116) or CKβ8-1(25-116), prepared as in Example 1) were added to the lower wells (final volume 29 μL), and 20 μL of cell suspension (5×10^6 cells/mL for monocytes; 2.5×10^6 cells/mL for neutrophils) added to the polycarbonate filters (5 μm pore size for monocytes; 3 μm pore size for neutrophils). After incubation for 90 min (37° C., 100% humidity, 5% CO2), cells were removed from the upper surface of the filter by scraping. Cells that migrated into the lower chamber were quantified using the Quant cell proliferation assay kit (Molecular Probes, Oreg.).
The ability of CKβ8-1 (25-116) to elicit the migration of the FPRL1 expressing cells was examined. Test conditions were as in Example 5.
The chemotactic activity of chemokines (CKβ8(1-99) and CKβ8(25-99), SHAAGtides (SEQ ID NO:1 and SEQ ID NO:2) and W peptides 1 and 2 (obtained as in Example 6) on FPRL1-L1.2 cells was determined in migration assays. The chemokines were prepared as in Example 1. The SHAAGtide sequences SEQ ID NO:1 and SEQ ID NO:2 were prepared as in Example 8. FPRL1-L1.2 cells were prepared as in Example 6.
The migration assays were performed in 96-well ChemoTx® microplates (Neuroprobe) using the protocol described in Example 5.

[2] = system: human neutrophils; test: Migration assay (ChemoTx), human neutrophils; assay type: cell-based; details: 90 min, 100 nM
Protocol: as §1, with “Leukotactin, MlP-1α and chemokines (CKβ8(1-99), CKβ8(25-99), CKβ8-1(1-116) or CKβ8-1(25-116), prepared as in Example 1) were added to the lower wells (final volume 29 μL), and 20 μL of cell suspension (5×10^6 cells/mL for monocytes; 2.5×10^6 cells/mL for neutrophils) added to the polycarbonate filters (5 μm pore size for monocytes; 3 μm pore size for neutrophils).” left out
The above peptides were prepared as in previous examples.

[3] = target: T2, CCR1; test: 125I-MIP-1α binding competition, HEK293-CCR1 cells
Protocol: The binding characteristics of CCL23 variants was compared in human CCR1 expressing cells. […] Reactions mixtures were aspirated onto PEI-treated GF/B glass filters using a cell harvester (Packard). The filters were washed twice (25 mM HEPES, 500 mM NaCl, 1 mM CaCl2, 5 mM MgCl2, adjusted to pH 7.1). Scintillant (MicroScint-10; 35 μl) was added to dried filters and the filiters counted in a Packard Topcount scintillation counter. Data were analyzed and plotted using Prism software (GraphPad Software, San Diego, Calif.).

Molecule | migration of FPRL1 expressing cells [1] | migration of neutrophils [2] | IC50 increase of truncated variant versus full-length variant ([3]; HEK293-CCR1) | migration of FPRL1 expressing cells ([1]; listed as CKβ8-1 (25-116)) | EC50 ([1]; FPRL1 expressing L1.2 cells, read-out: half-maximal cell migration) | migration of neutrophils ([2]; listed as CKβ8-1 (25-116)) | fold less potency than CKβ8(1-99) ([3]; displacement of bound 125I-MIP-1α from CCR1)
MLWRRKIGPQMTLSHAAG [SEQ ID NO: 1] | migrated the transfectants | produced migration | – | – | – | – | –
CKβ8-1(25-116): novel NH2-terminal truncated form of CKβ8-1, SEQ ID NO: 16, human recombinant chemokine (protein, listed as Homo sapiens) MLWRRKIGPQMTLSHAAGFHATSADCCISYTPRSIPCSLLESYFETNSECSKPGVIFLTKKGRRFCANPSDKQVQVCMRMLKLDTRIKTRKN | migrated the transfectants | produced migration | one fold | migrated in a bell-shaped dose-dependent manner; also recorded: higher than observed with the synthetic peptides WKYMVm and WKYMVM | 30 nM | robust response | –
CKβ8-1(1-116): alternatively spliced form of CKβ8, 116 amino acids, human recombinant chemokine (protein, listed as Homo sapiens) RVTKDAETEFMMSKLPLENPVLLDMLWRRKIGPQMTLSHAAGFHATSADCCISYTPRSIPCSLLESYFETNSECSKPGVIFLTKKGRRFCANPSDKQVQVCMRMLKLDTRIKTRKN | – | – | – | – | – | – | 3-4 fold
